Reference: article PMC3760141 (Cell reports, 2013)

B1: p202 HIN2 (K244-K445) (domain or fragment, mouse, UniProt Q9R002 244-445, looked up)
chain: KLLKESFEGDGYHKGPKQVVALKATKLFTYDSIKSKKMFHATVATDTEFFRVMVFEENLEKKFIPGNTIALSDYFGMYGSLAIHEYSSVSEVKSQNKEDSSSSDERLIEHLKICDLHLQTKERLVDGEFKVYRKSTGNNCICYGIWDDTGAMKVVVSGQLTSVNCEIGNTIRLVCFELTSNADEWFLRSTRYSYMEVIMPEK
B2: mouse AIM2 HIN (domain or fragment, UniProt Q91VJ1 144-341, looked up)
chain: MVAEQEAIREDLQKDPLVVTVLKAINPFECETQEGRQEIFHATVATETDFFFVKVLNAQFKDKFIPKRTIKISNYLWHSNFMEVTSSSVVVDVESNHEVPNNVVKRARETPRISKLKIQPCGTIVNGLFKVQKITEEKDRVLYGIHDKTGTMEVLVLGNPSKTKCEEGDKIRLTFFEVSKNGVKIQLKSGPCSFFKVI

Key:
mouse AIM2 HIN = target: B2; assay: ITC
SEC-MALS = target: the molecule itself; assay: SEC-MALS
p202 HIN2 (K244-K445) = target: B1; assay: ITC
cross-linking = target: the molecule itself; assay: cross-linking

B1
stoichiometry N (mouse AIM2 HIN): 2 p202 HIN2 per AIM2 HIN | stoichiometry N (SEC-MALS): 4

B2
Kd (p202 HIN2 (K244-K445)): 12.6 µM

B3: p202 HIN2 R376E (domain or fragment, mouse, UniProt Q9R002 244-445, looked up)
chain: KLLKESFEGDGYHKGPKQVVALKATKLFTYDSIKSKKMFHATVATDTEFFRVMVFEENLEKKFIPGNTIALSDYFGMYGSLAIHEYSSVSEVKSQNKEDSSSSDERLIEHLKICDLHLQTKERLVDGEFKVYEKSTGNNCICYGIWDDTGAMKVVVSGQLTSVNCEIGNTIRLVCFELTSNADEWFLRSTRYSYMEVIMPEK
stoichiometry N (SEC-MALS): 2

B4: full-length p202 (purified) (natural protein, mouse, UniProt Q9R002 1-445, looked up)
chain: MSNRNLRSSTNSEFSEGQHQTPSSDSSGHGEDQPQASPGPNKKSHTPKKNISKGAVLHEKPMTVMVLTATEPFNYKEGKENMFHATVATESQYYRVKVFNMDLKEKFTENKFITISKYFNSSGILEINETATVSEAAPNQIIEVPKNIIRSAKETLKISKIKELDSGTLIYGVFAVEKKKVNDKSITFKIKDNEDNIKVVWDKKQHNINYEKGDKLQLFSFHLRKGNGKPILHSGNHSFIKGEKLLKESFEGDGYHKGPKQVVALKATKLFTYDSIKSKKMFHATVATDTEFFRVMVFEENLEKKFIPGNTIALSDYFGMYGSLAIHEYSSVSEVKSQNKEDSSSSDERLIEHLKICDLHLQTKERLVDGEFKVYRKSTGNNCICYGIWDDTGAMKVVVSGQLTSVNCEIGNTIRLVCFELTSNADEWFLRSTRYSYMEVIMPEK
stoichiometry N (SEC-MALS): 4

B5: p202, endogenous in bone marrow-derived macrophages (natural protein, UniProt Q9R002 1-445, looked up)
chain: MSNRNLRSSTNSEFSEGQHQTPSSDSSGHGEDQPQASPGPNKKSHTPKKNISKGAVLHEKPMTVMVLTATEPFNYKEGKENMFHATVATESQYYRVKVFNMDLKEKFTENKFITISKYFNSSGILEINETATVSEAAPNQIIEVPKNIIRSAKETLKISKIKELDSGTLIYGVFAVEKKKVNDKSITFKIKDNEDNIKVVWDKKQHNINYEKGDKLQLFSFHLRKGNGKPILHSGNHSFIKGEKLLKESFEGDGYHKGPKQVVALKATKLFTYDSIKSKKMFHATVATDTEFFRVMVFEENLEKKFIPGNTIALSDYFGMYGSLAIHEYSSVSEVKSQNKEDSSSSDERLIEHLKICDLHLQTKERLVDGEFKVYRKSTGNNCICYGIWDDTGAMKVVVSGQLTSVNCEIGNTIRLVCFELTSNADEWFLRSTRYSYMEVIMPEK
stoichiometry N (cross-linking): 4
